The target of experiment [1] is T1, Human ROR1 (receptor tyrosine kinase-like orphan receptor 1) (human, UniProt Q01973 30-937).
T1 construct: also called hROR1; K562/ROR1
Nature of the experiment: competition with Myc-R12 scFv on ROR1/K562 cells; predicted plateau relative to R12 scFv = 100%. The protocol: (§1) Assays also were performed to assess competition of the clones with the reference antibody (R12 scFv), for binding to ROR1-expressing cells. VH clones were titrated against 2 nM Myc-R12 on ROR1/K562 cells and competition assessed with an anti-Myc-Alexa647 secondary antibody, and the half maximal inhibitory concentration (IC₅₀) determined for respective clones.
(§2) Additionally, percent (%) maximum (max) binding to ROR1-expressing cells and % max competition with the reference antibody (R12 scFv) were calculated. Percent max binding and competition values were calculated based on predicted plateaus (measured by Prism® using four parameter non-linear regression), relative to values for R12 scFv binding and inhibition, respectively, assigned as 100% in each study.

For experiment [2], the target named is T1, Human ROR1 (receptor tyrosine …). The experiment in a line: flow cytometry on ROR1-expressing cells; predicted plateau relative to R12 scFv = 100%. The method, then: as §2
The target is the same in experiment [3]. Nature of the experiment: flow cytometry competition, competitor 2 nM Myc-R12 scFv on ROR1/K562 cells (n = 1). The method, then: as §1
Background: A flow cytometer gives signals particle by particle.

Experiment [4] has the same target. Nature of the experiment: flow cytometry on ROR1-expressing K562 and CHOK1 cells (n = 1).

T1 sequence (Q01973 30-937): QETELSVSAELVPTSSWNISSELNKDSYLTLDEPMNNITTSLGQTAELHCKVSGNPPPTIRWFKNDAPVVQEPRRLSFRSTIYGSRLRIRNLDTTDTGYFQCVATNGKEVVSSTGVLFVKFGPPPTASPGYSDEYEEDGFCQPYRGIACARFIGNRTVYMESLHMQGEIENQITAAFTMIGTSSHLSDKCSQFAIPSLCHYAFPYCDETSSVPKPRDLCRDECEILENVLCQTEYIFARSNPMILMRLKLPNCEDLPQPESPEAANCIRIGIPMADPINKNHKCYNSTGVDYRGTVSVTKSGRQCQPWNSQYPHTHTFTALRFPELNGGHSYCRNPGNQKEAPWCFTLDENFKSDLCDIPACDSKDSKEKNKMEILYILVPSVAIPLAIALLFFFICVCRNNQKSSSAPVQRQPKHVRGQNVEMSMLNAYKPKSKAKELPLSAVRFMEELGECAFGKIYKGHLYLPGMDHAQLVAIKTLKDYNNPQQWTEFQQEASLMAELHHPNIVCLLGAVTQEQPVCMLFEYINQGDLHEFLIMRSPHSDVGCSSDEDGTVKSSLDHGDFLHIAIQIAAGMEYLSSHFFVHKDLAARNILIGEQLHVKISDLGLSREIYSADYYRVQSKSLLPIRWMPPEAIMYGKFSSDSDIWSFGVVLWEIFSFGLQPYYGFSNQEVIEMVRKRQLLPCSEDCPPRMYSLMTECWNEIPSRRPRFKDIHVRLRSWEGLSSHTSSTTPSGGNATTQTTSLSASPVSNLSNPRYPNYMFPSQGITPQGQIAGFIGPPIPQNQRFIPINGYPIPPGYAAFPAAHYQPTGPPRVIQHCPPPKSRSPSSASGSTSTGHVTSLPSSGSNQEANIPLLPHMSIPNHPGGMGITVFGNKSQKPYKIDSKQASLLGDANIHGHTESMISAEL

B1: Clone V331 (VHH)
VHH: QVQLQQWGAGLLKPSETLSLTCAVYGGSFSGYYWSWIRQPPGKGLEWIGKINHSGSTNYNPSLKSRVTISVDTSKNQFSLKLSSVTAADTAVYYCARGQIAAHVWGWFDPWGQGTLVTVSS
notes: human VH-only single-domain antibody, no VL
By IC50 is commonly meant the concentration at which inhibition is half-maximal. A low value points to inhibition by little substance. By EC50 is commonly meant the midpoint of the concentration-response curve. Turning to B1, the “% Max Competition” value in experiment [1] is 31%. Also, the “% Max Binding” value in experiment [2] is 70%. In addition, the IC50 in experiment [3] worked out at 32.4 nM. In experiment [4], this molecule returned an EC50 of 18.8 nM.

B2: Clone V128 (VHH)
VHH: EVQLLESGGGVVQPGGSLRLSCAASGFTFDTFWMSWVRQAPGKGLEWVGRIKSKTDGGTTDYAAPVKGRFTISRDDSKNTLYLQMNSLKTEDTAVYYCARDFGRWSYYFDYWSQGTLVTVSS
notes: as for B1
As to B2, the half-maximal inhibitory concentration (IC50) in experiment [3] was over 200 nM.

B3: Clone V163 (VHH)
VHH: QVQLVESGGGLVKPGGSLRLSCAASGFTFSNAWMSWVRQAPGKGLEWVGRIKSKTDGGTTDYAAPVKGRFTISRDDSKNTLYLQMNSLKTEDTAVYYCARQGDSSSWYVEVYYFDYWGQGTLVTVSS
notes: as for B1
With B3, in experiment [1], the “% Max Competition” value was 58%. Besides, the “% Max Binding” value in experiment [2] is 122%. Moreover, the IC50 in experiment [3] came to 154 nM. The molecule also showed an EC50 in experiment [4] of 92.9 nM.

B4: Clone V181 (VHH)
VHH: QITLKESGGGLVKPGRSLRLSCTASGFTFGDYAMSWFRQAPGKGLEWVGFIRSKAYGGTTEYAASVKGRFTISRDDSKSIAYLQMNSLKTEDTAVYYCAKDFEVREAHLSYFDYWGQGTLVTVSS
notes: as for B1
As to B4, the “% Max Competition” value in experiment [1] is 76%. In addition, in experiment [3], the IC50 was over 200 nM.

B5: Clone V397 (VHH)
VHH: QITLKESGGGLVQPGGSLRLSCAASGFTFSNAWMSWVRQAPGKGLEWVGRIKSKTDGGTTDYAAPLKGRFTISRDDSKNTLYLQMNSLKTEDTAVYYCARAKGLWFGESYYFDYWGQGTLVTVSS
notes: as for B1
Regarding B5, in experiment [1], the “% Max Competition” value is 18%. Moreover, the “% Max Binding” value in experiment [2] was 18%. Further, the IC50 in experiment [3] was 25.2 nM. In experiment [4], this molecule had an EC50 of 49.7 nM.

B6: Clone V312 (VHH)
VHH: EVQLVESGGGLVKPRGSLRLSCAASGFTFSNAWMSWVRQAPGKGLEWVGRIKSKTDGGTTDYAAPVKGRFTISRDDSKNTLYLQMNSLKTEDTAVYYCARTSRGRFLEWLLFDYWGQGTLVTVSS
notes: as for B1
As to B6, in experiment [1], the “% Max Competition” value is 19%. Further, the “% Max Binding” value in experiment [2] was 29%. In experiment [3], this molecule had a half-maximal inhibitory concentration (IC50) of 5.6 nM. In experiment [4], this molecule returned an EC50 of 23.7 nM.

B7: Clone V420 (VHH)
VHH: QVQLVESGGGLVQPGGSLRLSCAASGFTFSSYWMSWVRQAPGKGLEWVANIKQDGSEKYYVDSVKGRFTISRDNAKNSLYLQMNSLRAEDTAVYYCARVNGGEYYFDYWGQGTLVTVSS
notes: as for B1
In the case of B7, in experiment [1], the “% Max Competition” value is 58%. In experiment [2], the “% Max Binding” value is 74%. In experiment [3], this molecule yielded an IC50 of 71.5 nM. In experiment [4], the EC50 stood at 8 nM.

B8: Clone V282 (VHH)
VHH: EVQLVESGGGLVQPGGSLRLSCAASGFTFSSYWMSWVRQAPGKGLEWVANIKQDGSEKYYVDSVKGRFTISRDNAKNSLYLQMNSLRAEDTAVYYCARVRGSEYYFDYWGQGTLVTVSS
notes: as for B1
On to B8, for which the “% Max Competition” value in experiment [1] was 48%. Moreover, the “% Max Binding” value in experiment [2] was 64%. The same molecule came in with an IC50 in experiment [3] of 94.3 nM. The half-maximal effective concentration (EC50) in experiment [4] worked out at 13.1 nM.

B9: Clone V278 (VHH)
VHH: QITLKESGGGLVQPGGSLRLSCAASGFTFSSYAMSWVRQAPGKGLEWVSAISGSGGSTYYADSVKGRFTISRDNSKNTLYLQMNSLRAEDTAVYYCAKERSRWGDNWFDPWGQGTLVTVSS
notes: as for B1
On to B9, for which the “% Max Binding” value in experiment [2] is 22%. The molecule further returned a 50% effective concentration (EC50) in experiment [4] of 31.5 nM.

(Values after patent US20160208018A1 (JUNO THERAPEUTICS, published 2016).)
